# Measurements from PMC8698469, “A Combined Spectroscopic and In Silico Approach to Evaluate the Interaction of Human Frataxin with Mitochondrial Superoxide Dismutase” (Biomedicines, 2021).
# Where a chain is given by its changes, count along the chain named. Names and notes keep the numbering of the source.
# T1: human mitochondrial superoxide dismutase (SOD2), His-tag recombinant protein (human, UniProt P04179 25-222)
# T1 construct: Trp residues are printed as W78, W123, W125, W161, W181, W186; also called Mn-SOD; (SOD2)4; source: bought: Technical Novusbio (His-tag recombinant protein)
# T1 sequence: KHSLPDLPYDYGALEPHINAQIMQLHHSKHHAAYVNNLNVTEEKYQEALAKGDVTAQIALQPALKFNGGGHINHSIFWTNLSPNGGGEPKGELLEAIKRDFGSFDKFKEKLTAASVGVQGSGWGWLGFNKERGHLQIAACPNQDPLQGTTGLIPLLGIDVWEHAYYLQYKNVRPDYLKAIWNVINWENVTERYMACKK
# B1: human wild-type mature frataxin, FXN(90-210) (domain or fragment, UniProt Q16595 90-210, looked up)
# chain: LDETTYERLAEETLDSLAEFFEDLADKPYTFEDYDVSFGSGVLTVKLGGDLGTYVINKQTPNKQIWLSSPSSGPKRYDWTGKNWVYSHDGVSLHELLAAELTKALKTKLDLSSLAYSGKDA
# notes: human frataxin, residues 90-210 of the 210 amino acid precursor, from plasmid pET-9b/FXN(90-210); also called WT FXN; source: E. coli BL21 (DE3), purified (DEAE Sepharose ion exchange, SEC on Superdex 200)
# B2: human FXN(90-210) A193C, spin-labelled with M-TETPO (domain or fragment, UniProt Q16595 90-210, looked up)
# chain: B1 chain with A104C
# modifications: M-TETPO nitroxide spin label on cysteine 193
# notes: human frataxin, residues 90-210, native residue mutated to cysteine for spin labelling; source: E. coli BL21 (DE3), purified (DEAE Sepharose ion exchange, SEC), labelled with M-TETPO
# B3: human FXN(90-210) A114C, spin-labelled with M-TETPO (domain or fragment, UniProt Q16595 90-210, looked up)
# chain: B1 chain with A25C
# modifications: M-TETPO nitroxide spin label on cysteine 114
# notes: as for B2
# B4: human FXN(90-210) T133C, spin-labelled with M-TETPO (domain or fragment, UniProt Q16595 90-210, looked up)
# chain: B1 chain with T44C
# modifications: M-TETPO nitroxide spin label on cysteine 133
# notes: as for B2
# B5: human FXN(90-210) H183C, spin-labelled with M-TETPO (domain or fragment, UniProt Q16595 90-210, looked up)
# chain: B1 chain with H94C
# modifications: M-TETPO nitroxide spin label on cysteine 183
# notes: as for B2
# What was measured:
# [1] = target: T1, human mitochondrial superoxide …; assay: tryptophan fluorescence quenching (mixture against the sum of the single spectra); both in solution; FXN 1.4 uM, SOD2 1.9 uM (FXN:(SOD2)4 1:0.34), 288 K, mix of 20 mM TRIS-HCl pH 8 and 25 mM HEPES pH 7.0, 50 mM KCl, under nitrogen; conditions: both partners purified
# [2] = target: T1, human mitochondrial superoxide …; assay: SDSL-EPR (EPR spectra of spin-labelled protein, fitted rotational correlation time); both in solution; 10 uM spin-labelled FXN mutant without or with 40 uM SOD2 (FXN:(SOD2)4 1:1; also 1:0.5), room temperature, 18 uL SOD buffer (20 mM Tris HCl pH 8, 20% v/v glycerol) or SOD2 stock with 2 uL FXN stock, under nitrogen flow; conditions: both partners purified
binder,measurement,setting,value
B1,decrease in fluorescence quenching relative to the sum of the individual spectra,[1],17%
B2,ΔτC (τC^+SOD − τC^−SOD),[2],0.41 ns
B3,ΔτC (τC^+SOD − τC^−SOD),[2],0.44 ns
B4,ΔτC (τC^+SOD − τC^−SOD),[2],0.4 ns
B5,ΔτC (τC^+SOD − τC^−SOD),[2],0.56 ns
